Positions count from the first letter of the chain named.
Experiments:
Assay in all cases: cleavage_in_vitro
[1] = system: T1, BspQI (Bacillus sphaericus); conditions: NEB4, 50 C, Mg2+; FI NEB1-3: 2, 16, 32
T1 sequence: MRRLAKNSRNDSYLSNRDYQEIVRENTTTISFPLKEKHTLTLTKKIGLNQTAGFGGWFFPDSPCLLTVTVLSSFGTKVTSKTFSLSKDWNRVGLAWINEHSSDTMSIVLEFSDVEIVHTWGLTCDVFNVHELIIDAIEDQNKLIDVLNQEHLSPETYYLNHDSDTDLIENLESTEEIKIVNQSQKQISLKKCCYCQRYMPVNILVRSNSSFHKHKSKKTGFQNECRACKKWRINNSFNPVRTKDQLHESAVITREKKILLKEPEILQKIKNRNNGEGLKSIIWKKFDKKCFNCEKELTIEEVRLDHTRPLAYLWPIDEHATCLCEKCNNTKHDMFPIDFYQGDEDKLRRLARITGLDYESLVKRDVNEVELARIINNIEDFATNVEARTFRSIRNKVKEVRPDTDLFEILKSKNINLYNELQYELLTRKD

[2] = system: T2, NcoI (Nocardia corallina); conditions: NEB4, 37 C, Mg2+; FI NEB1-3: 120, 32, 120
T2 sequence: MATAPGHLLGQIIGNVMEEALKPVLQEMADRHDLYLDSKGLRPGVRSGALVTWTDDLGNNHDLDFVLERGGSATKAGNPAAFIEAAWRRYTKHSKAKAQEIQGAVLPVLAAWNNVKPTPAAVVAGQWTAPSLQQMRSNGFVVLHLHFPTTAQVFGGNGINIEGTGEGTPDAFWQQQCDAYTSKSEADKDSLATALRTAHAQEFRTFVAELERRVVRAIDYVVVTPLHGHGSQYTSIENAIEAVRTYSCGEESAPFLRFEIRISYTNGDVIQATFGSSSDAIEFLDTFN

[3] = system: T3, SspI-HF Y98F (Sphaerotilus species); conditions: NEB4, 37 C, Mg2+; FI NEB1-3: >=4000, 120, >=32
T3 sequence: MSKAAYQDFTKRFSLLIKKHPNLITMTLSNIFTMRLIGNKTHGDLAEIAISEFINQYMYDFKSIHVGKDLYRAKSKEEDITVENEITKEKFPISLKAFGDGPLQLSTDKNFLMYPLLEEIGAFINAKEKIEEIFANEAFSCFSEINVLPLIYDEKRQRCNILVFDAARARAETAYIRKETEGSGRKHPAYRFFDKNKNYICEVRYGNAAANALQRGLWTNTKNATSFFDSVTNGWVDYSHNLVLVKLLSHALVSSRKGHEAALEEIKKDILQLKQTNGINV

[4] = target: T4, ScaI-HF H193A/S201F (Streptomyces caespitosus) (UniProt O52691); conditions: NEB4, 37 C, Mg2+; FI NEB1-3: 4000, 1000, 2000
T4 sequence: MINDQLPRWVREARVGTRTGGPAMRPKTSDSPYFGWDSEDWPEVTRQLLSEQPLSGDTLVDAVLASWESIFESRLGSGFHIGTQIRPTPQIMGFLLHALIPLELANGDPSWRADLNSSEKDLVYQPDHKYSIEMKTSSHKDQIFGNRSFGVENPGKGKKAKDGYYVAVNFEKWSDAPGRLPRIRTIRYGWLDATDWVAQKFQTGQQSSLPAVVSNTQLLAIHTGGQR

[5] = system: T5, SspI (Sphaerotilus species); conditions: NEB4, 37 C, Mg2+; FI NEB1-3: 64, 16, 32
T5 sequence: T3 sequence with F98Y

[6] = target: EcoRI-HF K62E (Escherichia coli RY13) (UniProt P00642); conditions: NEB4, 37 C, Mg2+; FI NEB1-3: 2000, 4000, 250
[7] = system: T6, SphI-HF K100A (Streptomyces phaeochromogenes); conditions: NEB4, 37 C, Mg2+; FI NEB1-3: 4000, 2000, 250
T6 sequence: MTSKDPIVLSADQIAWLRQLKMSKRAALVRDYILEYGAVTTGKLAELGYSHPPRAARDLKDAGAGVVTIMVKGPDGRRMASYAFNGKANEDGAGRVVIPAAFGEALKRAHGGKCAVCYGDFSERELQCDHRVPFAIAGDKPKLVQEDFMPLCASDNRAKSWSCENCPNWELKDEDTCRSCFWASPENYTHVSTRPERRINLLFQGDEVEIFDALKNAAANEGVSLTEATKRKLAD

[8] = target: T7, BamHI-HF E163A/E167T (Bacillus amyloliquefaciens) (UniProt P23940); conditions: NEB4, 37 C, Mg2+; FI NEB1-3: >=4000, >=4000, >=250
T7 sequence: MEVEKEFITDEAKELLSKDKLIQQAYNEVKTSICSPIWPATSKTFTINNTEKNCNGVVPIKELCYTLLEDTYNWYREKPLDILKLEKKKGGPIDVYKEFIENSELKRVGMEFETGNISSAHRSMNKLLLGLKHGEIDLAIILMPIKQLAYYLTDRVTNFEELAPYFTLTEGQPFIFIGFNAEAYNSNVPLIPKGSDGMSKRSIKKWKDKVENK

[9] = target: T8, HindIII (Haemophilus influenzae Rd) (UniProt P43870); conditions: NEB4, 37 C, Mg2+; FI NEB1-3: 32, 250, 4000
T8 sequence: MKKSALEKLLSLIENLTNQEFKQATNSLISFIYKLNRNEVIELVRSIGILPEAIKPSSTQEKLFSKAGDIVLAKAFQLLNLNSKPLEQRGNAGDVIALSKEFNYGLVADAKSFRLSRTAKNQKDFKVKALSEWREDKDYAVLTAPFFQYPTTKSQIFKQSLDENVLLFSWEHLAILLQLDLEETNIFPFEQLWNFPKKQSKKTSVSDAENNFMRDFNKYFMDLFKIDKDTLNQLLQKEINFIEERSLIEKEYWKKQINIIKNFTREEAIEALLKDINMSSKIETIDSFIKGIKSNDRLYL

[10] = system: BstXI (Bacillus stearothermophilus); conditions: NEB4, 55 C, Mg2+; FI NEB1-3: 2, 2, 2

lambda phage DNA
activity (fidelity index) [1]: 4
activity (fidelity index) [2]: 32
activity (fidelity index) [3]: 500
activity (fidelity index) [4]: 1000
activity (fidelity index) [5]: 16
activity (fidelity index) [6]: 16000
activity (fidelity index) [7]: 8000
activity (fidelity index) [8]: > 4000
activity (fidelity index) [9]: 32
activity (fidelity index) [10]: 4

— patent US20130115678
